From US20030134799A1

target: NMDA receptor of well-washed rat forebrain membranes (rat) (UniProt Q9R1M7); assay: not given
Sequence (Q9R1M7 24-1135): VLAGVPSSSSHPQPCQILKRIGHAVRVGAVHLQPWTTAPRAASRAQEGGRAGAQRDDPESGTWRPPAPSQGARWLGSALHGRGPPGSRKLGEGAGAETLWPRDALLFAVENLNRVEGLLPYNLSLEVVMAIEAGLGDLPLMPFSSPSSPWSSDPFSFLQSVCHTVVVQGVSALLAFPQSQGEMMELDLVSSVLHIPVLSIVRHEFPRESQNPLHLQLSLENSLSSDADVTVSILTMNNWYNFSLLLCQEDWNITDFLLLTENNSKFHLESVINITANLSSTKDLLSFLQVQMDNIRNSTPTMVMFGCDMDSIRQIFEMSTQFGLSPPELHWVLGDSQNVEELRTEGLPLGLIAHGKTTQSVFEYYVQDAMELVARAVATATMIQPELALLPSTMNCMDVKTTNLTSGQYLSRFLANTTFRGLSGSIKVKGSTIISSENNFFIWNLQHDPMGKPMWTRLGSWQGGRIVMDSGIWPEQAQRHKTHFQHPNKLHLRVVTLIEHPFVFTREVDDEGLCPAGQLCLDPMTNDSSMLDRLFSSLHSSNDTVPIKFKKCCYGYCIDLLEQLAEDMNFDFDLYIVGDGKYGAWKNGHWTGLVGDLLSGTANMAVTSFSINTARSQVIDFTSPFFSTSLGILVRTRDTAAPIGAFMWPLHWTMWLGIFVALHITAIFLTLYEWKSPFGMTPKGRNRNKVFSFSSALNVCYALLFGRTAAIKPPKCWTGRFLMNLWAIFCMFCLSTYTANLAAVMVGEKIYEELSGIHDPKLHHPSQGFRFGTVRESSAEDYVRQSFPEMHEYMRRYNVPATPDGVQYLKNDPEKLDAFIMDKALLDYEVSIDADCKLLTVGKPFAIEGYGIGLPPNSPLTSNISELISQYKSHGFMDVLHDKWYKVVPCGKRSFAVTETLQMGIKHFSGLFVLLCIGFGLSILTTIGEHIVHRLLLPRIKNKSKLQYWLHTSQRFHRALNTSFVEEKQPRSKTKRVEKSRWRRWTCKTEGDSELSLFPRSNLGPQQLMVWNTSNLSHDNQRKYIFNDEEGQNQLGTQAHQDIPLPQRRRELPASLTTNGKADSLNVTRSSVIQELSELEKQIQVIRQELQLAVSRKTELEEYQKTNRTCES

| Substance | IC50 [nM] |
| --- | --- |
| Ala7-Con-G (peptide) | > 2500 |

target: NMDA receptor of primary cultures of rat cerebellar granule cells (rat); assay: cell-based or functional assay

| Substance | IC50, inhibition of NMDA-stimulated increases in cyclic GMP formation [nM] | potency in the cyclic GMP assay relative to Con-G [fold] |
| --- | --- | --- |
| Ala7-Con-G (peptide) | 77 | 4 |

target: NMDA receptor of well-washed rat forebrain membranes (rat) (UniProt Q9R1M7); assay: cell-based or functional assay

| Substance | % Inh, spermine-enhanced [3H]MK-801 binding [%] | % Sti, [3H]MK-801 binding without spermine [%] | IC (µM), inhibition of spermine-enhanced [3H]MK-801 binding [µM] | IC50, antagonism of Gly-stimulated [3H]MK-801 binding, representative experiment [nM] | IC50, inhibition of spermine-enhanced [3H]MK-801 binding [nM] | IC50, inhibition of spermine-enhanced [3H]MK-801 binding, typical experiment [nM] | IC50, reduction of Gly stimulated [3H]MK-801 binding [nM] | IC50, reduction of spermine stimulated [3H]MK-801 binding [nM] | potency against spermine relative to Con-G [fold] | EC (µM), stimulation of [3H]MK-801 binding without spermine [µM] |
| --- | --- | --- | --- | --- | --- | --- | --- | --- | --- | --- |
| Ac-Con-G (peptide) | 0 | 0 | – | – | – | – | – | – | – | – |
| Ac-Tyr^o-Con-G (peptide) | 73 | 0 | 18.3 | – | – | – | – | – | – | – |
| Ala3-Con-G (peptide) | 34 | 0 | 1.8 | – | – | – | – | – | – | – |
| Ala4-Con-G (peptide) | 0 | 0 | – | – | – | – | – | – | – | – |
| Ala7,10,14-Con-G (peptide) | 100 | 0 | 0.5 | – | – | – | – | – | – | – |
| Ala7-Con-G (peptide) | 100 | 0 | 0.046 | 625 | 45 | 50 | 500 | 45 | 4 | – |
| Ala10-Con-G (peptide) | 100 | 0 | 1.1 | – | – | – | – | – | – | – |
| Ala14-Con-G (peptide) | 100 | 0 | 0.16 | – | – | – | – | – | – | – |
| Asn(GlcNAc)^o-Con-G (peptide) | 38 | 0 | 8.8 | – | – | – | – | – | – | – |
| Asn^o-Con-G (peptide) | 83 | 0 | 8.7 | – | – | – | – | – | – | – |
| Con-G(1-5) (peptide) | 50 | 0 | 7.43 | – | – | – | – | – | – | – |
| Con-G(12-15) (peptide) | 0 | 20 | – | – | – | – | – | – | – | 69.8 |
| Con-G(12-17) (peptide) | 0 | 20 | – | – | – | – | – | – | – | 58 |
| Con-G(14-17) (peptide) | 0 | 61 | – | – | – | – | – | – | – | 1.3 |
| Con-G(15-17) (peptide) | 0 | 20 | – | – | – | – | – | – | – | 61.7 |
| Con-G-OH (peptide) | 0 | 0 | – | – | – | – | – | – | – | – |
| ConG(1-5)(14-17) (peptide) | 15 | 0 | 100 | – | – | – | – | – | – | – |
| ConG(1-5)AA(14-17) (peptide) | – | 0 | – | – | – | – | – | – | – | – |
| ConG(1-5)AAAA(14-17) (peptide) | – | 0 | – | – | – | – | – | – | – | – |
| ConG(1-5)GG(14-17) (peptide) | – | 0 | – | – | – | – | – | – | – | – |
| ConG(1-5)GGGG(14-17) (peptide) | – | 0 | – | – | – | – | – | – | – | – |
| ConG(1-6)A5(14-17) (peptide) | – | 0 | – | – | – | – | – | – | – | – |
| ConG(1-6)A7(14-17) (peptide) | – | 0 | – | – | – | – | – | – | – | – |
| D-Glu3,4,7,10,14-Con-G (peptide) | 0 | 30 | – | – | – | – | – | – | – | 5.8 |
| Glu3,4,7,10,14-Con-G (peptide) | 22 | 79 | 8.5 | – | – | – | – | – | – | 6.7 |
| Glu4-Con-G (peptide) | 0 | 0 | – | – | – | – | – | – | – | – |
| Glu7,10,14-Con-G (peptide) | 70 | 0 | > 5 | – | – | – | – | – | – | – |

| Substance | % Inh, spermine-enhanced [3H]MK-801 binding [%] | % Sti, [3H]MK-801 binding without spermine [%] | IC (µM), inhibition of spermine-enhanced [3H]MK-801 binding [µM] | IC50, antagonism of Gly-stimulated [3H]MK-801 binding, representative experiment [nM] | IC50, inhibition of spermine-enhanced [3H]MK-801 binding [nM] | IC50, inhibition of spermine-enhanced [3H]MK-801 binding, typical experiment [nM] | IC50, reduction of Gly stimulated [3H]MK-801 binding [nM] | IC50, reduction of spermine stimulated [3H]MK-801 binding [nM] | potency against spermine relative to Con-G [fold] | EC (µM), stimulation of [3H]MK-801 binding without spermine [µM] |
| --- | --- | --- | --- | --- | --- | --- | --- | --- | --- | --- |
| Glu10,14-Con-G(9-17) (peptide) | 0 | 0 | – | – | – | – | – | – | – | – |
| Glu14-Con-G(12-17) (peptide) | 0 | 30 | – | – | – | – | – | – | – | 47 |
| Glu 3,4,7,10,14-Con-G(2-17) (peptide) | 70 | 33 | 5.4 | – | – | – | – | – | – | 0.9 |
| Glu 7,10,14-Con-G(6-17) (peptide) | 0 | 0 | – | – | – | – | – | – | – | – |
| Phe(pCl)^o-Con-G (peptide) | 0 | 0 | – | – | – | – | – | – | – | – |
| Phe^o-Con-G (peptide) | 51 | 53 | 6.1 | – | – | – | – | – | – | 6.8 |
| Ser3-Con-G (peptide) | 23 | 62 | 3.6 | – | – | – | – | – | – | 8.4 |
| Ser4-Con-G (peptide) | 0 | 0 | – | – | – | – | – | – | – | – |
| Ser7-Con-G (peptide) | 100 | 0 | 0.25 | – | – | – | – | – | – | – |
| Ser10-Con-G (peptide) | 100 | 0 | 1.8 | – | – | – | – | – | – | – |
| Ser14-Con-G (peptide) | 100 | 0 | 0.16 | – | – | – | – | – | – | – |
| Ser(p)3-Con-G (peptide) | 34 | 68 | 0.9 | – | – | – | – | – | – | 3.5 |
| Ser(p)4-Con-G (peptide) | 0 | 0 | – | – | – | – | – | – | – | – |
| Ser(p)7-Con-G (peptide) | 50 | 0 | 1.04 | – | – | – | – | – | – | – |
| Ser(p)10-Con-G (peptide) | 100 | 0 | 0.56 | – | – | – | – | – | – | – |
| Ser(p)14-Con-G (peptide) | 31 | 0 | 1.12 | – | – | – | – | – | – | – |
| Ser^o-Con-G (peptide) | 41 | 0 | 6.8 | – | – | – | – | – | – | – |
| Tyr3-Con-G (peptide) | 0 | 0 | – | – | – | – | – | – | – | – |
| Tyr7-Con-G (peptide) | 100 | 0 | 0.5 | – | – | – | – | – | – | – |
| Tyr(oMe)^o-Con-G (peptide) | 0 | 0 | – | – | – | – | – | – | – | – |
| Tyr(p)^o-Con-G (peptide) | 0 | 0 | – | – | – | – | – | – | – | – |
| Tyr^o-Con-G (peptide) | 0 | 0 | – | – | – | – | – | – | – | – |
| Tyr^o-Glu3,4,7,10,14-Con-G (peptide) | 0 | 31 | – | – | – | – | – | – | – | 2.7 |
| di-iodo-Tyr7-Con-G (peptide) | 100 | 0 | 0.5 | – | – | – | – | – | – | – |
| iodo-Tyr7-Con-G (peptide) | 100 | 0 | 0.5 | – | – | – | – | – | – | – |
| tBu-Tyr^o-Con-G (peptide) | 29 | 69 | 1.5 | – | – | – | – | – | – | 1 |

target: NMDA receptor of well-washed rat forebrain membranes (rat) (UniProt Q9R1M7); assay: displacement of [3H]ifenprodil, polyamine-sensitive site

| Substance | IC50 [nM] |
| --- | --- |
| Ala7-Con-G (peptide) | 2500 |
